{"source": "patent US20050164163A1", "about": "(MEDICAL RESEARCH COUNCIL, published 2005)", "binders": {"B1": {"name": "HCMV UL102 protein (other)", "chain": "MTAQPPLHHRHHPYTLFGTSCHLSWYGLLEASVPIVQCLFLDLGGGRAEPRLHTFVVRGDRLPPAEVRAVHRASYAALASAVTTDADERRRGLEQRSAVLARVLLEGSALIRVLARTFTPVQIQTDASGVEILEAAPALGVETAALSNALSLFHVAKLVVIGSYPEVHEPRVVTHTAERVSEEYGTHAHKKLRRGYYAYDLAMSFRVGTHKYVLERDDEAVLARLFEVREVCFLRTCLRLVTPVGFVAVAVTDEQCCLLLQSAWTHLYDVLFRGFAGQPPLRDYLGPDLFETGAARSFFFPGFPPVPVYAVHGLHTLMRETALDAAAEVLSWCGLPDIVGSAGKLEVEPCALSLGVPEDEWQVFGTEAGGGAVRLNATAFRERPAGGDRRWLLPPLPRDDGDGENNVVEVSSSTGGAHPPSDDATFTVHVRDATLHRVLIVDLVERVLAKCVRARDFNPYVRYSHRLHTYAVCEKFIENLRFRSRRAFWQIQSLLGYISEHVTSACASAGLLWVLSRGHREFYVYDGYSGHGPVSAEVCVRTVVDCYWRKLFGGDDPGPTCRVQESAPGVLLVWGDERLVGPFNFFYGNGGAGGSPLHGVVGGFAAGHCGGACCAGCVVTHRHSSGGGGSGVGDADHASGGGLDAAAGSGHNGGSDRVSPSTPPAALGGCCCAAGGDWLSAVGHVLGRLPALLRERVSVSELEAVYREILFRFVARRNDVDFWLLRFQPGENEVRPHAGVIDCAPFHGVWAEQGQIIVQSRDTALAADIGYGVYVDKAFAMLTACVEVWARELLSSSTASTTACSSSSVLSSALPSVTSSSSGTATVSPPSCSSSSATWLEERDEWVRSLAVDAQHAAKRVASEGLRFFRLNA", "notes": "mature; Purified from Sf cells infected with AcUL102; The 873-residue form follows Smith and Pari (1995)"}, "B2": {"name": "Peptide 7 (Table 2), UL8 amino acids 719-738 (peptide)", "peptide": "IELVFTGVLAGVWGEGGKFV", "notes": "Synthetic 20-residue peptide from HSV-1 UL8"}, "B3": {"name": "Peptide 5 (Table 2), UL8 residues 722-750 (peptide)", "peptide": "VFTGVLAGVWGEGGKFVYPFDDKMSFLFA", "notes": "Synthetic peptide, C-terminal 29 amino acids of HSV-1 UL8"}}, "key": {"[1]": {"target": "T1, HCMV UL54 protein (HCMV DNA polymerase) (HCMV strain AD169, UniProt P08546 1-1242)", "T1 construct": "mature; Purified from Sf cells infected with AcUL54", "T1 sequence": "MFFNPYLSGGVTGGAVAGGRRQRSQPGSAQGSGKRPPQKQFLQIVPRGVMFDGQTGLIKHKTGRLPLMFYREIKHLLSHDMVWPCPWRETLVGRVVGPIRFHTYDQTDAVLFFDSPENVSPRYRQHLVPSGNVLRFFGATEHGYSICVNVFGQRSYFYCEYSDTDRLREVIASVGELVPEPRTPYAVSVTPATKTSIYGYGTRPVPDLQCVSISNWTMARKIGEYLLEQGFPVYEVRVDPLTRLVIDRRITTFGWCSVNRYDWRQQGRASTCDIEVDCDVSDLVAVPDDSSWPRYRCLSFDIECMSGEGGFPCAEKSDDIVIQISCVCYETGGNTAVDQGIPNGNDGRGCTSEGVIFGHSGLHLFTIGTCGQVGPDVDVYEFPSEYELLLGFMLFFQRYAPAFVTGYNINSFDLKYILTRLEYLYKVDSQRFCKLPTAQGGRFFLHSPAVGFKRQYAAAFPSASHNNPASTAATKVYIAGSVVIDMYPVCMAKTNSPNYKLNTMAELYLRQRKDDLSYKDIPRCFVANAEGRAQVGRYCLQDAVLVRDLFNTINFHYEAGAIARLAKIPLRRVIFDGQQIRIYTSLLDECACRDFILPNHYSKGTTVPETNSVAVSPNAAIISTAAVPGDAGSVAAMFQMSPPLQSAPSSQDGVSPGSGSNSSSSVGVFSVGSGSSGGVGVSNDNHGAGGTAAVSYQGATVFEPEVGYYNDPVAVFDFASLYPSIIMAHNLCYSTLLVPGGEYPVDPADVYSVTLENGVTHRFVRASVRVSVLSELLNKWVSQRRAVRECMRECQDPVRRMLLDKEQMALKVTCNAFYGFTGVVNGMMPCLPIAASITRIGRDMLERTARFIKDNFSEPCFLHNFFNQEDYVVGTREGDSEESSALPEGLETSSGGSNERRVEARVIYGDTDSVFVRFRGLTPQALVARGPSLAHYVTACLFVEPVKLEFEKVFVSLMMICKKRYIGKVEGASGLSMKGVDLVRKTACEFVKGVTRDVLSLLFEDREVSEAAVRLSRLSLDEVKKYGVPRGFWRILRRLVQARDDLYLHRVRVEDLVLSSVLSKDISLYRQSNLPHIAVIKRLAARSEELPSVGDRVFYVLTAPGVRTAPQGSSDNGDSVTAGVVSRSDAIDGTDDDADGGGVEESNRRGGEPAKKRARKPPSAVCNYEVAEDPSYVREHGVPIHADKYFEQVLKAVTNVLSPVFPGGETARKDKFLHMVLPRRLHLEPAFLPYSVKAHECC", "test": "ELISA, UL102 coated (0 to 0.4 µg), UL54 added (0 to 0.6 µg), detected with antiserum 144"}, "[2]": {"target": "T2, HSV-1 POL (UL30 protein, catalytic subunit of the HSV-1 DNA polymerase) (HSV-1, UniProt P04293 1-1235)", "T2 construct": "mature; Purified from Sf cells infected with baculovirus AcUL30", "T2 sequence (looked up)": "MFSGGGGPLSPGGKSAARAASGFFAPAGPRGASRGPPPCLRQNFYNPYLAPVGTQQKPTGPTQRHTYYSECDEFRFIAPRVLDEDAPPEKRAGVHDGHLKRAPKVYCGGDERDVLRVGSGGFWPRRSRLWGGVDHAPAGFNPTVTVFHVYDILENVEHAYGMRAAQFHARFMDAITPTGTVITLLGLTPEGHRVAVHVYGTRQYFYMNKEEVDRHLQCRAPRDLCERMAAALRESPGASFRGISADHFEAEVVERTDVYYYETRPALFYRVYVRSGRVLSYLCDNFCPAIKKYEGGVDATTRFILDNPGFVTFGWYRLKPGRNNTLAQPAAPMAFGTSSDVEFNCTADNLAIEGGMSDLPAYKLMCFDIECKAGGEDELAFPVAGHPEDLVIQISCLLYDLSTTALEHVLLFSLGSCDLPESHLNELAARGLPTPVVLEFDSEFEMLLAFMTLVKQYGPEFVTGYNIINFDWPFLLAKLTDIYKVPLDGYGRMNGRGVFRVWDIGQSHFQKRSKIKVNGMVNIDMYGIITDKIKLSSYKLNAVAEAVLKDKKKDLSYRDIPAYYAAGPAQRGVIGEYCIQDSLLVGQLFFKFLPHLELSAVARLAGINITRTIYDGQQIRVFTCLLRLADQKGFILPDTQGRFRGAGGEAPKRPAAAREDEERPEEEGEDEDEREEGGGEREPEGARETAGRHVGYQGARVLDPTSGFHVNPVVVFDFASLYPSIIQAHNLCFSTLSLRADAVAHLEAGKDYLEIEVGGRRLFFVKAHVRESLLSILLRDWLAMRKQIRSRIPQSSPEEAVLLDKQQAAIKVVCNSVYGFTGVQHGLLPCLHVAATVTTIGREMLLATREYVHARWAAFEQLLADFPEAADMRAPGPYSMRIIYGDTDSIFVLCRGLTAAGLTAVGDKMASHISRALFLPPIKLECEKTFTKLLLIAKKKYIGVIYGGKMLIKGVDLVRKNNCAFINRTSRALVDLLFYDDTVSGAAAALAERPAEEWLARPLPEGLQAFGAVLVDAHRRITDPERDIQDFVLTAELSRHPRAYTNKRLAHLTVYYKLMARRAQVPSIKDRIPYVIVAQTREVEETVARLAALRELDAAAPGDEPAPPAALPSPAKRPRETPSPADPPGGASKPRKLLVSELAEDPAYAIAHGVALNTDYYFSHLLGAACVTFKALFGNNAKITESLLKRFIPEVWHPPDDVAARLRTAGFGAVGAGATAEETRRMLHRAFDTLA", "test": "competition ELISA: peptide incubated with POL, then added to UL8-coated wells; average of independent experiments"}, "[3]": {"target": "T2, HSV-1 POL (UL30 protein, catalytic …)", "test": "competition ELISA of FIG. 7: peptide incubated with POL 15 min, then added to UL8-coated wells"}, "[4]": {"target": "T2, HSV-1 POL (UL30 protein, catalytic …)", "test": "competition ELISA: peptide incubated with POL 15 min, then added to UL8-coated wells"}}}
{"binder": "B1", "values": [{"measurement": "binding result", "setting": "[1]", "value": "binds"}]}
{"binder": "B2", "values": [{"measurement": "IC50", "setting": "[2]", "value": 2.25, "unit": "µM"}, {"measurement": "IC50", "setting": "[3]", "value": "~1", "unit": "µM"}]}
{"binder": "B3", "values": [{"measurement": "binding result", "setting": "[4]", "value": "binds"}]}
